Measurements: PMC5841360 (2018)

B1: his6-cortactin, wild type (purified) [not stated] / GST-GluA2 C-terminal tail [not stated] (parent complex)
chain 1: not shown
chain 2: EFCYKSRAEAKRMKVAKNPQNINPSSSQNSQNFATYKEGYNVYGIESVKI

Variants of: B1
Assay: GST pulldown, Western blot quantification; Input is 0.2% of offered protein; n = 3-6; read off a plot

| Variant | percent of parent |
| --- | --- |
| chain 2 K17A, chain 2 N18A | ~76 |
| chain 2 K11A | ~22 |
| chain 2 K14A, chain 2 V15A | ~37 |
| chain 2 P19A, chain 2 Q20A | ~83 |
| chain 2 R12A, chain 2 M13A | ~55 |
